According to patent publication US20250084174A1:
Positions count from the first letter of the chain named. Values belong to the binder of their own block, whether it stands above or below them.

What was measured:
[1] = target: human CCR9 (isoform not given) (human), P51686
[2] = target: human CCR9 (isoform not given) (human), P51686; test: cell-based or functional assay
[3] = target: CCR9 (species and isoform not stated) (UniProt P51686); test: cell-based or functional assay
[4] = target: CCR9 (species and isoform not stated) (UniProt P51686); test: LigandTracer on CCR9-expressing CHO K1 cells, DyLight 650 labelled IgG, bivalent (1:2) fit, ~22 °C
[5] = target: CCR9 (species and isoform not stated) (UniProt P51686)

Chain of human CCR9 (isoform not given) (human), P51686 (P51686 whole entry, canonical isoform): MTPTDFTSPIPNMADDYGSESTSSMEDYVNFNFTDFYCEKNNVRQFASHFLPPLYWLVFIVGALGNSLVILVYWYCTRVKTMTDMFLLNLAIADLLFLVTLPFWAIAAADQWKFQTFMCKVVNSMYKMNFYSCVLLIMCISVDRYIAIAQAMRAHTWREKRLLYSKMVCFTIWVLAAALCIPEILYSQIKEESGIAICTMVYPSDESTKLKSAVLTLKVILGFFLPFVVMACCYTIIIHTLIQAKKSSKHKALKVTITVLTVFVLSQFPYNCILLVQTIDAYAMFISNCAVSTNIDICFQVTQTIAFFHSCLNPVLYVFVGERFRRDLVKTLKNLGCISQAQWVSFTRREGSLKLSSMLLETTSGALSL

IC50 (read off the curve), HTRF IP-One, MOLT 4 cells, 50 nM CCL25 [1]: 0.6 nM
prevention of CCL25 induced CCR9 internalisation (FACS) [3]: 2 nM
B1: AB243LO0326 (antibody, V domains shown)
VH: QVQLVQSGAEVKKPGASVKVSCKASGYTFTSYWMHWVRQAPGQGLEWIGVIYPGNSDTRYNQKFKGRVTITRDTSASTAYMELSSLRSEDTAVYYCTRDYYSNYVYYYAMDYWGQGTTVTVSS
VL: DIVMTQTPLSLPVTPGEPASISCRSSQSLVHPNRNTYLHWYLQKPGQSPQLLIYKVSNRFSGVPDRFSGSGSGTDFTLKISRVEAEDVGVYYCSQSTHVPWTFGQGTKLEIK
modifications: here or on the partner: afucosylated form; in the LigandTracer assay DyLight 650 Maleimide on an engineered cysteine residue in the CH2 region
EC50, killing of PBMC [2]: 0.004 nM
EC50, killing of human CD4+CCR9+ PBMC [2]: 0.004 to 0.005 nM

IC50 (read off the curve), HTRF IP-One, MOLT 4 cells, 50 nM CCL25 [1]: 0.6 nM
B2: AB243LO0331 (antibody, IgG1, V domains shown)
VH: B1 VH
VL: B1 VL with P32S, R34T
modifications: here or on the partner: afucosylated form

koff [4]: 4.3e-05 s⁻¹
Potency, NK cell activation (NK-92 CD16a NFAT luciferase reporter) [2]: 0.8 nM
EC50, luminescence signal (CPS) against Log M; potency curve as in the NK cell activation reporter assay; the target cell line is not printed on the sheet [5]: 7.3e-09 M
B3: humanised AB1020243 afuc (AB1020243-fgl) (antibody, V domains shown)
VH: B1 VH
VL: B1 VL with P32S, R34G
modifications: afucosylated form; in the LigandTracer assay DyLight 650 Maleimide on an engineered cysteine residue in the CH2 region
